Patent US20210388087A1 (Chugai, published 2021)
Changes are numbered by the printed parent chain. Names and notes keep the numbering of the source.

T1: Human CD3eg linker (human)
T1 construct: Single-chain construct; also called recombinant human CD3
T1 chain: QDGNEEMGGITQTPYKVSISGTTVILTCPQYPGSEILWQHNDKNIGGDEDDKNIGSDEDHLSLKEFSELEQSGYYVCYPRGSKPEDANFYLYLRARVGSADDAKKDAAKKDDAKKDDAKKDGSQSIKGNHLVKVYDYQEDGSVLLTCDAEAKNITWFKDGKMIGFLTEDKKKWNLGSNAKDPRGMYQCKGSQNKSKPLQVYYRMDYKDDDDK

B1: H183/L072 VL S93I (antibody, name in Kabat numbering, V domains shown)
VH: QVQLVESGGGLVQPGRSLRLSCAASGFTFSNAWMHWVRQAPGKGLEWVAQIKDKGNAYAAYYAPSVKGRFTISRDDSKNSIYLQMNSLKTEDTAVYYCHYVHYASASTVLPAFGVDAWGQGTTVTVSS
VL: DIVMTQSPLSLPVTPGEPASISCQASQELVHMNRNTYLHWYQQKPGQAPRLLIYKVSNRFPGVPDRFSGSGSGTDFTLKISRVEAEDVGVYYCAQGTIVPFTFGQGTKLEIK
B2: H183/L072 VL S93K (antibody, name in Kabat numbering, V domains shown)
VH: B1 VH
VL: B1 VL with I98K
B3: H183/L072 VL S93L (antibody, name in Kabat numbering, V domains shown)
VH: B1 VH
VL: B1 VL with I98L
B4: H183/L072 VL S93M (antibody, name in Kabat numbering, V domains shown)
VH: B1 VH
VL: B1 VL with I98M
B5: H183/L072 VL S93N (antibody, name in Kabat numbering, V domains shown)
VH: B1 VH
VL: B1 VL with I98N
B6: H183/L072 VL S93Q (antibody, name in Kabat numbering, V domains shown)
VH: B1 VH
VL: B1 VL with I98Q
B7: H183/L072 VL S93R (antibody, name in Kabat numbering, V domains shown)
VH: B1 VH
VL: B1 VL with I98R
B8: H183/L072 VL S93T (antibody, name in Kabat numbering, V domains shown)
VH: B1 VH
VL: B1 VL with I98T
B9: H183/L072 VL S93V (antibody, name in Kabat numbering, V domains shown)
VH: B1 VH
VL: B1 VL with I98V
B10: H183/L072 VL S93W (antibody, name in Kabat numbering, V domains shown)
VH: B1 VH
VL: B1 VL with I98W
B11: H183/L072 VL T31A (antibody, name in Kabat numbering, V domains shown)
VH: B1 VH
VL: B1 VL with T36A, I98S
B12: H183/L072 VL T31D (antibody, name in Kabat numbering, V domains shown)
VH: B1 VH
VL: B1 VL with T36D, I98S
B13: H183/L072 VL T31E (antibody, name in Kabat numbering, V domains shown)
VH: B1 VH
VL: B1 VL with T36E, I98S
B14: H183/L072 VL T31G (antibody, name in Kabat numbering, V domains shown)
VH: B1 VH
VL: B1 VL with T36G, I98S
B15: H183/L072 VL T31H (antibody, name in Kabat numbering, V domains shown)
VH: B1 VH
VL: B1 VL with T36H, I98S
B16: H183/L072 VL T31I (antibody, name in Kabat numbering, V domains shown)
VH: B1 VH
VL: B1 VL with T36I, I98S
B17: H183/L072 VL T31K (antibody, name in Kabat numbering, V domains shown)
VH: B1 VH
VL: B1 VL with T36K, I98S
B18: H183/L072 VL T31L (antibody, name in Kabat numbering, V domains shown)
VH: B1 VH
VL: B1 VL with T36L, I98S
B19: H183/L072 VL T31N (antibody, name in Kabat numbering, V domains shown)
VH: B1 VH
VL: B1 VL with T36N, I98S
B20: H183/L072 VL T31Q (antibody, name in Kabat numbering, V domains shown)
VH: B1 VH
VL: B1 VL with T36Q, I98S
B21: H183/L072 VL T31R (antibody, name in Kabat numbering, V domains shown)
VH: B1 VH
VL: B1 VL with T36R, I98S
B22: H183/L072 VL T31S (antibody, name in Kabat numbering, V domains shown)
VH: B1 VH
VL: B1 VL with T36S, I98S
B23: H183/L072 VL T31V (antibody, name in Kabat numbering, V domains shown)
VH: B1 VH
VL: B1 VL with T36V, I98S
B24: H183/L072 VL T92A (antibody, name in Kabat numbering, V domains shown)
VH: B1 VH
VL: B1 VL with T97A, I98S
B25: H183/L072 VL T92D (antibody, name in Kabat numbering, V domains shown)
VH: B1 VH
VL: B1 VL with T97D, I98S
B26: H183/L072 VL T92E (antibody, name in Kabat numbering, V domains shown)
VH: B1 VH
VL: B1 VL with T97E, I98S
B27: H183/L072 VL T92F (antibody, name in Kabat numbering, V domains shown)
VH: B1 VH
VL: B1 VL with T97F, I98S
B28: H183/L072 VL T92G (antibody, name in Kabat numbering, V domains shown)
VH: B1 VH
VL: B1 VL with T97G, I98S
B29: H183/L072 VL T92H (antibody, name in Kabat numbering, V domains shown)
VH: B1 VH
VL: B1 VL with T97H, I98S
B30: H183/L072 VL T92K (antibody, name in Kabat numbering, V domains shown)
VH: B1 VH
VL: B1 VL with T97K, I98S
B31: H183/L072 VL T92L (antibody, name in Kabat numbering, V domains shown)
VH: B1 VH
VL: B1 VL with T97L, I98S
B32: H183/L072 VL T92M (antibody, name in Kabat numbering, V domains shown)
VH: B1 VH
VL: B1 VL with T97M, I98S
B33: H183/L072 VL T92N (antibody, name in Kabat numbering, V domains shown)
VH: B1 VH
VL: B1 VL with T97N, I98S
B34: H183/L072 VL T92Q (antibody, name in Kabat numbering, V domains shown)
VH: B1 VH
VL: B1 VL with T97Q, I98S
B35: H183/L072 VL T92R (antibody, name in Kabat numbering, V domains shown)
VH: B1 VH
VL: B1 VL with T97R, I98S
B36: H183/L072 VL T92S (antibody, name in Kabat numbering, V domains shown)
VH: B1 VH
VL: B1 VL with T97S, I98S
B37: H183/L072 VL T92V (antibody, name in Kabat numbering, V domains shown)
VH: B1 VH
VL: B1 VL with T97V, I98S
B38: H183/L072 VL T97A (antibody, name in Kabat numbering, V domains shown)
VH: B1 VH
VL: B1 VL with I98S, T102A
B39: H183/L072 VL T97D (antibody, name in Kabat numbering, V domains shown)
VH: B1 VH
VL: B1 VL with I98S, T102D
B40: H183/L072 VL T97E (antibody, name in Kabat numbering, V domains shown)
VH: B1 VH
VL: B1 VL with I98S, T102E
B41: H183/L072 VL T97F (antibody, name in Kabat numbering, V domains shown)
VH: B1 VH
VL: B1 VL with I98S, T102F
B42: H183/L072 VL T97G (antibody, name in Kabat numbering, V domains shown)
VH: B1 VH
VL: B1 VL with I98S, T102G
B43: H183/L072 VL T97H (antibody, name in Kabat numbering, V domains shown)
VH: B1 VH
VL: B1 VL with I98S, T102H
B44: H183/L072 VL T97I (antibody, name in Kabat numbering, V domains shown)
VH: B1 VH
VL: B1 VL with I98S, T102I
B45: H183/L072 VL T97K (antibody, name in Kabat numbering, V domains shown)
VH: B1 VH
VL: B1 VL with I98S, T102K

Target: T1, Human CD3eg linker
Assay: SPR; fold vs parent H183/L072

Row | Binder | fold change of affinity
1 | B1 | 0.8 fold
2 | B2 | 1 fold
3 | B3 | 0.9 fold
4 | B4 | 1 fold
5 | B5 | 0.8 fold
6 | B6 | 1 fold
7 | B7 | 1 fold
8 | B8 | 1 fold
9 | B9 | 0.7 fold
10 | B10 | 1.1 fold
11 | B11 | 0.2 fold
12 | B12 | 0 fold
13 | B13 | 0.4 fold
14 | B14 | 0 fold
15 | B15 | 0.1 fold
16 | B16 | 0.7 fold
17 | B17 | 0.4 fold
18 | B18 | 0 fold
19 | B19 | 0 fold
20 | B20 | 0.4 fold
21 | B21 | 0.4 fold
22 | B22 | 0.5 fold
23 | B23 | 0.7 fold

Row | Binder | fold change of affinity
24 | B24 | 0.1 fold
25 | B25 | 0 fold
26 | B26 | 0 fold
27 | B27 | 0.3 fold
28 | B28 | 0.2 fold
29 | B29 | 0.2 fold
30 | B30 | 0.8 fold
31 | B31 | 0.3 fold
32 | B32 | 0.3 fold
33 | B33 | 0.2 fold
34 | B34 | 0 fold
35 | B35 | 0.5 fold
36 | B36 | 0.5 fold
37 | B37 | 0.4 fold
38 | B38 | 0.8 fold
39 | B39 | 0.6 fold
40 | B40 | 0.6 fold
41 | B41 | 0.3 fold
42 | B42 | 1 fold
43 | B43 | 0.5 fold
44 | B44 | 0.5 fold
45 | B45 | 0.6 fold
